Results: patent US20250262210A1 (TRUSTEES OF COLUMBIA UNIVERSITY IN THE CITY OF NEW YORK, published 2025)

Key:
Assay in all cases: IP/MS, LZTR1 R810W-FLAG, U87
PARP14 = PARP14 (human, UniProt Q460N5 1-1801, limits assumed)
Summary of the method: (§1)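 Extracted peptides in 3% acetonitrile/0.1% formic acid ran on a 50 cm C18 column into an Orbitrap Fusion, with MaxQuant identification and spectral counting.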

SMPD4 = molecular target: T1, SMPD4 (human, UniProt Q9NXE4 1-866, limits assumed)
T1 sequence (looked up): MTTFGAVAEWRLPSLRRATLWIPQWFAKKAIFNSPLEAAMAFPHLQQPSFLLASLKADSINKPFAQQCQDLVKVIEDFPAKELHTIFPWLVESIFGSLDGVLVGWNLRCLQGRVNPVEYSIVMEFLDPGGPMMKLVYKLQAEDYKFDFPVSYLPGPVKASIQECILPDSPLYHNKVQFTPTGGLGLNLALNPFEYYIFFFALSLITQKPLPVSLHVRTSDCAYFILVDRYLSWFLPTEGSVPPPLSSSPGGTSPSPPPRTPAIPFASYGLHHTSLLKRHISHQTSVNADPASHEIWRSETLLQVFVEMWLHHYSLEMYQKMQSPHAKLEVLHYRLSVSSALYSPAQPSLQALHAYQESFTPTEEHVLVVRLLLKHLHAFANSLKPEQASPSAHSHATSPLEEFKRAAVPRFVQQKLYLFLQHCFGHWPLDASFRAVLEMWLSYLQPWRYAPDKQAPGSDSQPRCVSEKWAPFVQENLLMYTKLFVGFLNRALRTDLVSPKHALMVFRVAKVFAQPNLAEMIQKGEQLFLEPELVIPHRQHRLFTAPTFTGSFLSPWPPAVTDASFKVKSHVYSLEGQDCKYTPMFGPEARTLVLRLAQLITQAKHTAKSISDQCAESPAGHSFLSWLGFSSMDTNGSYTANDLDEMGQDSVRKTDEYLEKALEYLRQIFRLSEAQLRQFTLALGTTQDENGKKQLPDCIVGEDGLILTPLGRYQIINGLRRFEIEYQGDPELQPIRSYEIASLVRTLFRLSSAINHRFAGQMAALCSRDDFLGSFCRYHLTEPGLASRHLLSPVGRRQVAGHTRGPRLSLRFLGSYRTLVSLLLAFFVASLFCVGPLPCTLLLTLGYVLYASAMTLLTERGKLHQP
Summary of the method: as §1

CDC42BPB = CDC42BPB (human, UniProt Q9Y5S2 1-1711)
Sequence of CDC42BPB (Q9Y5S2 whole entry): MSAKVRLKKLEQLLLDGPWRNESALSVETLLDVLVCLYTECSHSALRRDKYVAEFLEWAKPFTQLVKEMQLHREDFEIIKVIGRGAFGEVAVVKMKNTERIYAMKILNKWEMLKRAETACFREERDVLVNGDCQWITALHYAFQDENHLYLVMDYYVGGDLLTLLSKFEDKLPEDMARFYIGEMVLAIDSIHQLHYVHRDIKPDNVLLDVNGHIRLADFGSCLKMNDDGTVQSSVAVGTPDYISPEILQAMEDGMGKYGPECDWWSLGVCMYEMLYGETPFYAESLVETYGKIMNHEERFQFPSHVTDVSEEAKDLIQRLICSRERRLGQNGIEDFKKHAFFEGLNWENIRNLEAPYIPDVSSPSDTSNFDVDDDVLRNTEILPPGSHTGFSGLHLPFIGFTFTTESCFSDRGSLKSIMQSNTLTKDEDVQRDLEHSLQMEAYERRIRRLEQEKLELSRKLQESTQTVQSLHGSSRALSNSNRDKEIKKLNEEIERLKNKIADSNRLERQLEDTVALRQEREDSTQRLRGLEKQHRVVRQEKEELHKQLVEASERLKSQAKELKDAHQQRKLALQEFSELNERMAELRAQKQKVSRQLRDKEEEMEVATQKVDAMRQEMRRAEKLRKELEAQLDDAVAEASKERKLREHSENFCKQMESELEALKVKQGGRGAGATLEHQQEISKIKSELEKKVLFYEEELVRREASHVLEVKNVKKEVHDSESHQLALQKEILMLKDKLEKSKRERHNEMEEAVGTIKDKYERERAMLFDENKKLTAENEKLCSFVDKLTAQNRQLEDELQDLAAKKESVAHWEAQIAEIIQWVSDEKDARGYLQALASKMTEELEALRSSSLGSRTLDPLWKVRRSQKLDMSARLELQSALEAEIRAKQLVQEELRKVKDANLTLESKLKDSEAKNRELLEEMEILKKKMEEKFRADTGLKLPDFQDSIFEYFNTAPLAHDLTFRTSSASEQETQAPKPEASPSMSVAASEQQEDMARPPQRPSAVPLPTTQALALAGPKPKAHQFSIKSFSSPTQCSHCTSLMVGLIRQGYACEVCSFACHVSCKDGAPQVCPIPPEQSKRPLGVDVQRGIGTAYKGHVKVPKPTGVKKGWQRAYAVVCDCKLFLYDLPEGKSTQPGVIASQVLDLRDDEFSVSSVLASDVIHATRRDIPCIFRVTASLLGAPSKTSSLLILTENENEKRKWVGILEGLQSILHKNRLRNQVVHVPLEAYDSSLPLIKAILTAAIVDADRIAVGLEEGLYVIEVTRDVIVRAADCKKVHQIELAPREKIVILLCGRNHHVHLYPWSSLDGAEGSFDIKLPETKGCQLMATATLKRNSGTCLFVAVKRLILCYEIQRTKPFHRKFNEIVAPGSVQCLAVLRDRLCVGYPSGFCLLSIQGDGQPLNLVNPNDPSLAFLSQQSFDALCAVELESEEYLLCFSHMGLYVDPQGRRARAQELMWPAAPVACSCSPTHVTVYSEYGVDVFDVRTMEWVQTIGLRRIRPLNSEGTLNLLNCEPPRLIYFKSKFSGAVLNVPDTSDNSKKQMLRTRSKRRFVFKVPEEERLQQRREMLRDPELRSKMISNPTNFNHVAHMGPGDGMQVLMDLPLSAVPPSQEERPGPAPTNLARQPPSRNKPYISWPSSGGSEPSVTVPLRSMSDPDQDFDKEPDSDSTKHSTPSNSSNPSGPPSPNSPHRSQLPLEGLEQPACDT
Summary of the method: as §1

CTDP1 = molecular target: T2, CTDP1 (human, UniProt Q9Y5B0 1-961, limits assumed)
T2 sequence (looked up): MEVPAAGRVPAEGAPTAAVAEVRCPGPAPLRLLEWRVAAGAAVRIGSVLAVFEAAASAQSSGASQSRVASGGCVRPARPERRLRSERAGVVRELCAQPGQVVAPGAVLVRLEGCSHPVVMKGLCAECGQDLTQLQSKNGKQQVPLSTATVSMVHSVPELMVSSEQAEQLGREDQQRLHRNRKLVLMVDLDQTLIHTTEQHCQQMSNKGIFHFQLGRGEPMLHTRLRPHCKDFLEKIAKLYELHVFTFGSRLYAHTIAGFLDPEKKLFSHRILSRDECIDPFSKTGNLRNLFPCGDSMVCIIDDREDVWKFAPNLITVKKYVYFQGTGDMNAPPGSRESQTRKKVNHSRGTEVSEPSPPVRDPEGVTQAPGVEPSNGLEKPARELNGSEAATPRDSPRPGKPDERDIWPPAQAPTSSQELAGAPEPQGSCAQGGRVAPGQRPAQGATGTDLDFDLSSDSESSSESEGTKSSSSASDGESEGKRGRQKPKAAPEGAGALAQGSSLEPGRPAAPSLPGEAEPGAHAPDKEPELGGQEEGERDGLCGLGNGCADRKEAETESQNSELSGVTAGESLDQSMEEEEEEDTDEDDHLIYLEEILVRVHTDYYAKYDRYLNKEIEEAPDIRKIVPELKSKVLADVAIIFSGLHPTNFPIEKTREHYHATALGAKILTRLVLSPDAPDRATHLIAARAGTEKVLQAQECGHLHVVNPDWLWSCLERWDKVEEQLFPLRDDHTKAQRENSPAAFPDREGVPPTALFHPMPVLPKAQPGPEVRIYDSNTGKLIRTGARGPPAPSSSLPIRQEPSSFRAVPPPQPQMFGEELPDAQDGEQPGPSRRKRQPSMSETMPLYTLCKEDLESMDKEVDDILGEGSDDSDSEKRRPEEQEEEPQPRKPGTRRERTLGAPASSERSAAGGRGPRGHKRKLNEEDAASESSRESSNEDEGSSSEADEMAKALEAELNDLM
Summary of the method: as §1

HERC2 = HERC2 (human, UniProt O95714 1-4834)
Summary of the method: as §1

Measured: binding result

Sequence of PARP14 (Q460N5 whole entry, the tested form may be a part): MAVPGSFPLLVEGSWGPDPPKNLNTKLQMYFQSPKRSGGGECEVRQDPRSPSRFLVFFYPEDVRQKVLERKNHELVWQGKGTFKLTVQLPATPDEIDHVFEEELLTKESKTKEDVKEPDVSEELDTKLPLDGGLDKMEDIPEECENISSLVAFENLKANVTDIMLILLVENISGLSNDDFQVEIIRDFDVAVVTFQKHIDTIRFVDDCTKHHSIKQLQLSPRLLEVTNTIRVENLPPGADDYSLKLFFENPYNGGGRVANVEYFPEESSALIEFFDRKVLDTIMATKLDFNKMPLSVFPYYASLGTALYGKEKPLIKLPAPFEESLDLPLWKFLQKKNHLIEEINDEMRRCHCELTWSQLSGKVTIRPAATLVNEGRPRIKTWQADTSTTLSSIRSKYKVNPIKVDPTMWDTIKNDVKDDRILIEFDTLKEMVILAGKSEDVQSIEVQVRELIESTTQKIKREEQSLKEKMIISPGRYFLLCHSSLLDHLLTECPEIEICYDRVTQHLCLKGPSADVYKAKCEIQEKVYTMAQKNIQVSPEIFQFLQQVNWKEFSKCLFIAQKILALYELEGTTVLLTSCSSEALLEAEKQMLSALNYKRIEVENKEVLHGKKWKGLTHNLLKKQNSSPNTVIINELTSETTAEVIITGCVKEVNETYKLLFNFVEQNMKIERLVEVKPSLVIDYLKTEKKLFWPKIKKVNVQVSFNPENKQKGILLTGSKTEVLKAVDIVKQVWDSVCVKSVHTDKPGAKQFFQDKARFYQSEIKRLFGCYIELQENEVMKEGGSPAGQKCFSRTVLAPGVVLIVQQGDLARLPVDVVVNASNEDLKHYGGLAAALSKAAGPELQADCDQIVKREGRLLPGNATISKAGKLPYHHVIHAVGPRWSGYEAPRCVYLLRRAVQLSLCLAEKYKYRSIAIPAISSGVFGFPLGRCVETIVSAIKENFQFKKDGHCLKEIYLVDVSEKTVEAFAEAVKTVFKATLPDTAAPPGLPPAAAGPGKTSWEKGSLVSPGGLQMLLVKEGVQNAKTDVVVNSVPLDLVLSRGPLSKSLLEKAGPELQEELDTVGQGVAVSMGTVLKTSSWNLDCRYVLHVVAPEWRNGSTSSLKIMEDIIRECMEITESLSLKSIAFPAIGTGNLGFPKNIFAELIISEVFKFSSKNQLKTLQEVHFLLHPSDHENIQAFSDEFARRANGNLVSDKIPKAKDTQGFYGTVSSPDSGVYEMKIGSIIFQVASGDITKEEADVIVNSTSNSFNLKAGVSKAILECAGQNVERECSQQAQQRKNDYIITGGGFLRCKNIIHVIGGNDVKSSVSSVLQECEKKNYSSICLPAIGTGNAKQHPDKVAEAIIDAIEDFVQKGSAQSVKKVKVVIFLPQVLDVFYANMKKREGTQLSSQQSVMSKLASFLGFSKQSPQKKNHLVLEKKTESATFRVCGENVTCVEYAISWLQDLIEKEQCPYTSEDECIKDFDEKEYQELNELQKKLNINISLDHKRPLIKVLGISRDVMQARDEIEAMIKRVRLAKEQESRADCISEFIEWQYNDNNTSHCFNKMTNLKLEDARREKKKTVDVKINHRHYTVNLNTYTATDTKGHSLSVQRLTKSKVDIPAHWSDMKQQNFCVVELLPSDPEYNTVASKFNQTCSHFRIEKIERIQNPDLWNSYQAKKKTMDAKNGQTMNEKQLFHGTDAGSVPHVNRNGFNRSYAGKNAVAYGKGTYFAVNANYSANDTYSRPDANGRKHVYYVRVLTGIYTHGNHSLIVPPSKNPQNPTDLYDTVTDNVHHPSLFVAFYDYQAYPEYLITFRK

B1: LZTR1 R810W-FLAG (other, human, UniProt Q8N653 1-840, looked up)
chain: MAGPGSTGGQIGAAALAGGARSKVAPSVDFDHSCSDSVEYLTLNFGPFETVHRWRRLPPCDEFVGARRSKHTVVAYKDAIYVFGGDNGKTMLNDLLRFDVKDCSWCRAFTTGTPPAPRYHHSAVVYGSSMFVFGGYTGDIYSNSNLKNKNDLFEYKFATGQWTEWKIEGRLPVARSAHGATVYSDKLWIFAGYDGNARLNDMWTIGLQDRELTCWEEVAQSGEIPPSCCNFPVAVCRDKMFVFSGQSGAKITNNLFQFEFKDKTWTRIPTEHLLRGSPPPPQRRYGHTMVAFDRHLYVFGGAADNTLPNELHCYDVDFQTWEVVQPSSDSEVGGAEVPERACASEEVPTLTYEERVGFKKSRDVFGLDFGTTSAKQPTQPASELPSGRLFHAAAVISDAMYIFGGTVDNNIRSGEMYRFQFSCYPKCTLHEDYGRLWESRQFCDVEFVLGEKEECVQGHVAIVTARSRWLRRKITQARERLAQKLEQEAAPVPREAPGVAAGGARPPLLHVAIREAEARPFEVLMQFLYTDKIKYPRKGHVEDVLLIMDVYKLALSFQLCRLEQLCRQYIEASVDLQNVLVVCESAARLQLSQLKEHCLNFVVKESHFNQVIMMKEFERLSSPLIVEIVRRKQQPPPRTPLDQPVDIGTSLIQDMKAYLEGAGAEFCDITLLLDGHPRPAHKAILAARSSYFEAMFRSFMPEDGQVNISIGEMVPSRQAFESMLRYIYYGEVNMPPEDSLYLFAAPYYYGFYNNRLQAYCKQNLEMNVTVQNVLQILEAADKTQALDMKRHCLHIIVHQFTKVSKLPTLWSLSQQLLLDIIDSLASHISDKQCAELGADI
notes: Stably expressed in U87 cells by lentivirus; also called LZTR1-FLAG-R810W; LZTR1 RW; not shown: FLAG tag
binds: all assays above
